Data on 13 molecules can be found in PMC3293417 (Nature Communications, 2012).

For orientation: Kd means the concentration at which binding is half-saturated. Broadly, the stoichiometry N is a count of units in the complex or per binding partner.

The chains are these.
B1: Beclin 1 coiled coil (CC) domain (residues 174–266), wild type, untagged (domain or fragment)
chain: DSEQLQRELKELALEEERLIQELEDVEKNRKVVAENLEKVQAEAERLDQEEAQYQREYSEFKRQQLELDDELKSVENQMRYAQMQLDKLKKTN
B2: CC region of mouse UVRAG (residues 228–298) (domain or fragment)
chain: TSNELKKESECLRLKILVLRNELERQKKALGREVAFLHKQQMALQDKGSAFSTEHGKLQLQKDSLSELRKE
B3: Beclin 1 CC domain MutStab E189L/A217L/E224L/A255L (domain or fragment)
chain: B1 chain with E16L, A44L, E51L, A82L
B4: CC region of rat Atg14L (residues 88–178) (domain or fragment)
chain: KQEEFQKEVLKAMEGKRLTDQLRWKIMSCKMRIEQLKQTICKGNEEMKKNSEGLLKNKEKNQKLYSRAQRHQEKKEKIQRHNRKLGDLVEK

Series [1] addresses CC region of mouse UVRAG (residues 228–298) (mouse) (UniProt Q8K245). The series can be described thus: ITC.
The series “ITC” concerns the molecule itself. The series can be described thus: ITC.
The target of series [2] is B2. The series can be described thus: ITC. (In general: ITC needs no label: the signal is the heat of the interaction.)
Series [3] addresses B4. Briefly: ITC.
For series [4], the target named is B1. Briefly: ITC.
The series “AUC” deals with the molecule itself. Briefly: AUC.
For series [5], the target named is Beclin 1 CC domain MutM L178A/L259A (rat, UniProt Q91XJ1 174-266, L178A | L259A). Briefly: ITC.
The target in series [6] is Beclin 1 CC domain MutM L178A/L192A (rat, UniProt Q91XJ1 174-266, L178A | L192A). The series can be described thus: ITC.
Series [7] concerns the target Beclin 1 CC domain MutM L178A/L196A (rat, UniProt Q91XJ1 174-266, L178A | L196A). Briefly: ITC.
For series [8], the target named is Beclin 1 CC domain MutStab E224L (rat, UniProt Q91XJ1 174-266, E224L). Briefly: ITC.

Positions count from the first letter of the chain named. Numbers in names are those of the source.

Beclin 1 CC domain MutM L178A/L259A, sequence (Q91XJ1 174-266 L178A/L259A): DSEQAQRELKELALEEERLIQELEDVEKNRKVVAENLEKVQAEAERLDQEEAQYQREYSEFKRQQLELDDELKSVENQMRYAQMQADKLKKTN

Molecule “Beclin 1 CC domain MutStab E189L/A217L/E224L/A255L (from UniProt Q91XJ1 174-266) (domain or fragment)” displayed a Kd in [1] of 8700 nM. In series [1], “Beclin 1 CC domain MutStab E189L/A255L (from UniProt Q91XJ1 174-266) (domain or fragment)” registered a Kd of 1310 nM and a stoichiometry N of 1.

In [1], “Beclin 1 CC domain MutStab E224L (from UniProt Q91XJ1 174-266) (domain or fragment)” displayed a Kd of 2430 nM. “Beclin 1 CC domain MutStab E189L (from UniProt Q91XJ1 174-266) (domain or fragment)” returned a Kd in [1] of 1130 nM. “Beclin 1 CC domain MutM L178A/L259A (from UniProt Q91XJ1 174-266) (domain or fragment)” displayed a Kd in [1] of 70 nM. With “Beclin 1 CC domain MutStab A217L/E224L/A255L (from UniProt Q91XJ1 174-266) (domain or fragment)”, the Kd in [1] turned out to be 4240 nM. In turn, “Beclin 1 CC domain MutM L178A/L196A (from UniProt Q91XJ1 174-266) (domain or fragment)” displayed a Kd in series [1] of 1140 nM.

In turn, “Beclin 1 CC domain MutM L178A/L192A (from UniProt Q91XJ1 174-266) (domain or fragment)” came in with a Kd in series [1] of 2240 nM. Turning to “Beclin 1 CC domain MutStab A217L/E224L (from UniProt Q91XJ1 174-266) (domain or fragment)”, in series [1], the Kd was 1440 nM and the stoichiometry N was found to be 1. With B1, in the series “ITC”, the Kd was roughly 89000 nM. Besides, the “stoichiometry N” value in series [2] and in series [3] was 1 each time. Turning to B2, the Kd in series [4] stood at 240 ± 60 nM.

For B3, in “AUC”, the “stoichiometry N” value turned out to be 4. For the molecule B4, the dissociation constant Kd amounted to 1200 ± 130 nM in series [5]; 4610 ± 500 nM in series [6]; 6850 ± 840 nM in series [7]; 3220 ± 950 nM in [4]; 8850 ± 400 nM in series [8].
